Test results: FireProtDB (doi:10.1093/protein/7.9.1089)
Values joined by “and” are separate entries in the source; they are usually repeats but may differ in a detail not shown here. Equal entries are not always repeated.

Details: Bacillus amyloliquefaciens, pH 4.4, Thermal, DSC, Sodium acetate/Acetic acid 6.08 mM/13.92 mM/, reversible: yes (>95%), whole UniProt chain shown

B1: Ribonuclease wild type, P00648 (protein)
chain: MMKMEGIALKKRLSWISVCLLVLVSAAGMLFSTAAKTETSSHKAHTEAQVINTFDGVADYLQTYHKLPDNYITKSEAQALGWVASKGNLADVAPGKSIGGDIFSNREGKLPGKSGRTWREADINYTSGFRNSDRILYSSDWLIYKTTDHYQTFTKIR
With B1 the “heat capacity change of unfolding” value (25 °C) was 1.6 kcal/mol/K, the unfolding free energy (25 °C) was 8.69 kcal/mol and 8.66 kcal/mol and the Tm was 51.5 °C and 51.6 °C. The “unfolding enthalpy (calorimetric)” value was 128 kcal/mol and the “unfolding enthalpy (van 't Hoff)” value was 128 kcal/mol and 129 kcal/mol.
